Entries after “also recorded” stand apart in the source; their conditions may differ.
Legend:
[1] = system: U87MG cells; test: binding to cell lines by FACS; set-up: species or system human; details: parental U87MG
Description: (§1) Briefly, cells were labelled with the relevant antibody (10 μg/ml) followed by fluorescein-conjugated goat anti-mouse IgG (1:100 dilution; Calbiochem San Diego, Calif., USA; Becton-Dickinson PharMingen, San Diego, Calif., US) as described previously (Nishikawa et al., 1994). FACS data was obtained on a Coulter Epics Elite ESP by observing a minimum of 5,000 events and analyzed using EXPO (version 2) for Windows.
(§2) Stained cells were analyzed with a FACS Calibur using Cell Quest software (Becton-Dickinson PharMingen). […] 1. Mouse IgG2a or IgG2b was used as an isotype control.
(§3) Cell lines and antibodies were prepared as described in Example 1. […] Cells (1 3 10 6) were incubated with 5 μg/ml of the appropriate antibody or an isotype-matched negative control in PBS containing 1% HSA for 30 min at 4° C. After three washes with PBS/1% HSA, cells were incubated an additional 30 min at 4° C. with FTTC-coupled goat anti-mouse antibody (1:100 dilution; Calbiochem, San Diego, Calif.). After three subsequent washes, cells were analyzed on an Epics Elite ESP (Beckman Coulter, Hialeah, Fla.) by observing a minimum of 20,000 events and analyzed using EXPO (version 2) for Windows.

[2] = system: U87MG.wtEGFR cells; test: binding to cell lines by FACS; set-up: species or system human
Description: as §1, §2, §3

[3] = system: glioblastomas not preselected for EGFR status; test: immunohistochemistry of 46 unselected glioblastomas; format: binding, human
Description: Immunohistochemical analysis was performed using […] sections of fresh frozen tissue applied to histology slides and fixed for 10 minutes in cold acetone. Bound primary antibody was detected with biotinylated horse anti-mouse antibody followed by an avidin-biotin-complex reaction. Diaminobenzidine tetrahydrochloride (DAB) was used as chromogen. The extent of the immunohistochemical reactivity in tissues was estimated by light microscopy and graded according to the number of immunoreactive cells in 25% increments as follows:
The 528 antibody was strongly and homogeneously positive in all samples except two (Nos. 27 and 29) (44/46, 95.7%).

[4] = system: U87MG brain xenografts; test: intracranial glioma xenograft treatment; format: in vivo, nude mice; details: i.p. day 0 through 14
[5] = system: U87MG.DK brain xenografts; test: intracranial glioma xenograft treatment; format: in vivo, nude mice; details: i.p. day 0 through 14
[6] = system: Ba/F3 cells expressing the wtEGFR; test: MTT proliferation assay with EGF; format: cell-based, murine; details: antibody 10 μg/ml
Description: Cells growing in log phase were harvested and washed twice with PBS to remove residual IL-3. […] Proliferation was determined using the MTT assay (van de Loosdrecht et al. (1994) J. Immunol. Methods. 174, 311-320).

B1: mAb806: murine IgG2b monoclonal antibody, clone 806, ATCC PTA-3858; VH SEQ ID NO:2, VL SEQ ID NO:4 (antibody, listed as Mus musculus, V domains shown)
VH: MRVLILLWLFTAFPGVLSDVQLQESGPSLVKPSQSLSLTCTVTGYSITSDFAWNWIRQFPGNKLEWMGYISYSGNTRYNPSLKSRISITRDTSKNQFFLQLNSVTIEDTATYYCVTAGRGFPYWGQGTLVTVSA
VL: MVSTAQFLAFLLLWFPGARCDILMTQSPSSMSVSLGDTVSITCHSSQDINSNIGWLQQRPGKSFKGLIYHGTNLDDEVPSRFSGSGSGADYSLTISSLESEDFADYYCVQYAQFPWTFGGGTKLEIKR
[1]
  FACS staining: binding levels similar to the control antibody; also recorded: not with U87MG cells
[2]
  FACS staining: stained; also recorded: reacted weakly
[3]; glioblastoma #1, EGFR Amp. A, 5′ MUT
  Immunoreactivity: ++++ (++++=>75%)
[3]; glioblastoma #2, EGFR Amp. N, WT
  Immunoreactivity: ++++ (++++=>75%)
[3]; glioblastoma #3, EGFR Amp. N, A2
  Immunoreactivity: ++++ (++++=>75%)
[3]; glioblastoma #4, EGFR Amp. N, WT
  Immunoreactivity: ++++ (++++=>75%)
[3]; glioblastoma #5, EGFR Amp. N, 5′ MUT
  Immunoreactivity: ++++ (++++=>75%)
[3]; glioblastoma #6, EGFR Amp. A, WT
  Immunoreactivity: ++++ (++++=>75%)
[3]; glioblastoma #7, EGFR Amp. N, 5′ MUT
  Immunoreactivity: ++++ (++++=>75%)
[3]; glioblastoma #8, EGFR Amp. A, 5′ MUT
  Immunoreactivity: ++++ (++++=>75%)
[3]; glioblastoma #9, EGFR Amp. A, WT
  Immunoreactivity: ++++ (++++=>75%)
[3]; glioblastoma #10, EGFR Amp. N, WT
  Immunoreactivity: neg.
[3]; glioblastoma #11, EGFR Amp. A, 5′ MUT
  Immunoreactivity: ++ (++=25-50%)
[3]; glioblastoma #12, EGFR Amp. A, 5′ MUT
  Immunoreactivity: ++ (++=25-50%)
[3]; glioblastoma #13, EGFR Amp. N, WT
  Immunoreactivity: ++++ (++++=>75%)
[3]; glioblastoma #14, EGFR Amp. Nd, nd
  Immunoreactivity: neg.
[3]; glioblastoma #15, EGFR Amp. N, WT
  Immunoreactivity: ++ (++=25-50%)
[3]; glioblastoma #16, EGFR Amp. N, nd
  Immunoreactivity: neg.
[3]; glioblastoma #17, EGFR Amp. N, WT
  Immunoreactivity: neg.
[3]; glioblastoma #18, EGFR Amp. A, 5′ MUT
  Immunoreactivity: ++++ (++++=>75%)
[3]; glioblastoma #19, EGFR Amp. N, WT
  Immunoreactivity: ++++ (++++=>75%)
[3]; glioblastoma #20, EGFR Amp. N, WT
  Immunoreactivity: neg.
[3]; glioblastoma #21, EGFR Amp. N, WT
  Immunoreactivity: ++++ (++++=>75%)
[3]; glioblastoma #22, EGFR Amp. N, WT
  Immunoreactivity: neg.
[3]; glioblastoma #23, EGFR Amp. N, 5′ MUT
  Immunoreactivity: ++++ (++++=>75%)
[3]; glioblastoma #24, EGFR Amp. A, WT
  Immunoreactivity: ++++ (++++=>75%)
[3]; glioblastoma #25, EGFR Amp. N, WT
  Immunoreactivity: neg.
[3]; glioblastoma #26, EGFR Amp. A, 5′ MUT
  Immunoreactivity: ++++ (++++=>75%)
[3]; glioblastoma #27, EGFR Amp. N, WT
  Immunoreactivity: neg.
[3]; glioblastoma #28, EGFR Amp. N, WT
  Immunoreactivity: neg.
[3]; glioblastoma #29, EGFR Amp. N, WT
  Immunoreactivity: neg.
[3]; glioblastoma #30, EGFR Amp. N, WT
  Immunoreactivity: ++++ (++++=>75%)
[3]; glioblastoma #31, EGFR Amp. N, nd
  Immunoreactivity: neg.
[3]; glioblastoma #32, EGFR Amp. N, 5′ MUT
  Immunoreactivity: +++ (+++=50-75%)
[3]; glioblastoma #33, EGFR Amp. A, 5′ MUT
  Immunoreactivity: ++++ (++++=>75%)
[3]; glioblastoma #34, EGFR Amp. N, WT
  Immunoreactivity: +++ (+++=50-75%)
[3]; glioblastoma #35, EGFR Amp. A, 5′ MUT
  Immunoreactivity: neg.
[3]; glioblastoma #36, EGFR Amp. A, 5′ MUT
  Immunoreactivity: ++ (++=25-50%)
[3]; glioblastoma #37, EGFR Amp. A, 5′ MUT
  Immunoreactivity: + (+=5-25%)
[3]; glioblastoma #38, EGFR Amp. N, WT
  Immunoreactivity: neg.
[3]; glioblastoma #39, EGFR Amp. N, 5′ MUT
  Immunoreactivity: neg.
[3]; glioblastoma #40, EGFR Amp. A, WT
  Immunoreactivity: ++++ (++++=>75%)
[3]; glioblastoma #41, EGFR Amp. N, WT
  Immunoreactivity: neg.
[3]; glioblastoma #42, EGFR Amp. A, WT
  Immunoreactivity: ++++ (++++=>75%)
[3]; glioblastoma #43, EGFR Amp. nd, nd
  Immunoreactivity: neg.
[3]; glioblastoma #44, EGFR Amp. N, WT
  Immunoreactivity: neg.
[3]; glioblastoma #45, EGFR Amp. N, WT
  Immunoreactivity: neg.
[3]; glioblastoma #46, EGFR Amp. N, nd
  Immunoreactivity: neg.
[3]; panel of 46
  positive cases / glioblastomas: 27/46
[4]
  effect on survival: did not extend survival
[5]
  effect on survival: did not extend survival
[6]
  effect on EGF-induced proliferation: no effect

— patent US20110293511A1, “SPECIFIC BINDING PROTEINS AND USES THEREOF” (priority 2009, published 2011)
